The source of these data is US20210388110A1 (published 2021).

By Kd is commonly meant a measure of binding affinity in units of concentration. Low readings indicate tighter binding, high ones weaker binding.

This test concerns the target T1, soluble human CD3ε chain (human, UniProt P07766 23-126, limits assumed).
T1 construct: also called human CD3 epsilon chain
Put plainly: SPR (Biacore), soluble human CD3ε chain. On the technique in general: SPR reads the build-up and loss of mass on a sensor chip optically.

T1 sequence (P07766 23-126 limits assumed): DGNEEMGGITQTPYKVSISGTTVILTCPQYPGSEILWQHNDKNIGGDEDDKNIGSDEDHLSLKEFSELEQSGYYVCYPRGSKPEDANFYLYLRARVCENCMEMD

B1: TR01H096-E22Hh/none-Hi-Kn010G3/L0011-k0 (antibody, human IgG1, kappa, L234A L235A, N297A)
heavy: QVQLVESGGGLVQPGRSLRLSCAASGFTFSNAWMHWVRQAPGKGLEWVAQIKDKSQNYAGYYAESVKGRFTISRDDSKNSLYLQMNSLKTEDTAVYYCRYVHYAAGYGVDAWGQGTTVTVSSASTKGPSVFPLAPSSKSTSGGTAALGCLVKDYFPEPVTVSWNSGALTSGVHTFPAVLQSSGLYSLSSVVTVPSSSLGTQTYICNVNHKPSNTKVDKKVEPKSCDKTHTCPPCPAPEAAGGPSVFLFPPKPKDTLMISRTPEVTCVVVDVSHEDPEVKFNWYVDGVEVHNAKTKPREEQYASTYRVVSVLTVLHQDWLNGKEYKCKVSNKALPAPIEKTISKAKGQPREPQVYTLPPSRCELTKNQVSLSCAVKGFYPSDIAVEWESNGQPENNYKTTPPVLDSDGSFFLVSKLTVDKSRWQQGNVFSCSVMHEALHNHYTQKSLSLSPDYKDDDDK
chain: EPKSSDKTHTCPPCPAPELLGGPSVFLFPPKPKDTLMISRTPEVTCVVVDVSHEDPEVKFNWYVDGVEVHNAKTKPREEQYNSTYRVVSVLTVLHQDWLNGKEYKCKVSNKALPAPIEKTISKAKGQPREPQVCTLPPSRDELTKNQVSLWCLVKGFYPSDIAVEWESNGQPENNYKTTPPVLDSDGSFFLYSKLTVDKSRWQQGNVFSCSVMHEALHNRYTQKSLSLSP
light: DIVMTQSPLSLPVTPGEPASISCRSSQPLVHSNRNTYLHWYQQKPGQAPRLLIYKVSNRFSGVPDRFSGSGSGTDFTLKISRVEAEDVGVYYCGQGTQVPYTFGQGTKLEIKRTVAAPSVFIFPPSDEQLKSGTASVVCLLNNFYPREAKVQWKVDNALQSGNSQESVTEQDSKDSTYSLSSTLTLSKADYEKHKVYACEVTHQGLSSPVTKSFNRGEC
notes: one-arm antibody (single Fab) with Fab-less hinge-Fc chain Hi-Kn010G3
B1 returned an equilibrium dissociation constant (Kd) of 74.7 nM.

B2: TR01H097-E22Hh/none-Hi-Kn010G3/L0011-k0 (antibody, human IgG1, kappa, L234A L235A, N297A)
heavy: QVQLVESGGGLVQPGRSLRLSCAASGFTFSNAWMHWVRQAPGKGLEWVAQIKDKSQNYALYYAESVKGRFTISRDDSKNSLYLQMNSLKTEDTAVYYCRYVHYAAGYGVDAWGQGTTVTVSSASTKGPSVFPLAPSSKSTSGGTAALGCLVKDYFPEPVTVSWNSGALTSGVHTFPAVLQSSGLYSLSSVVTVPSSSLGTQTYICNVNHKPSNTKVDKKVEPKSCDKTHTCPPCPAPEAAGGPSVFLFPPKPKDTLMISRTPEVTCVVVDVSHEDPEVKFNWYVDGVEVHNAKTKPREEQYASTYRVVSVLTVLHQDWLNGKEYKCKVSNKALPAPIEKTISKAKGQPREPQVYTLPPSRCELTKNQVSLSCAVKGFYPSDIAVEWESNGQPENNYKTTPPVLDSDGSFFLVSKLTVDKSRWQQGNVFSCSVMHEALHNHYTQKSLSLSPDYKDDDDK
chain: EPKSSDKTHTCPPCPAPELLGGPSVFLFPPKPKDTLMISRTPEVTCVVVDVSHEDPEVKFNWYVDGVEVHNAKTKPREEQYNSTYRVVSVLTVLHQDWLNGKEYKCKVSNKALPAPIEKTISKAKGQPREPQVCTLPPSRDELTKNQVSLWCLVKGFYPSDIAVEWESNGQPENNYKTTPPVLDSDGSFFLYSKLTVDKSRWQQGNVFSCSVMHEALHNRYTQKSLSLSP
light: DIVMTQSPLSLPVTPGEPASISCRSSQPLVHSNRNTYLHWYQQKPGQAPRLLIYKVSNRFSGVPDRFSGSGSGTDFTLKISRVEAEDVGVYYCGQGTQVPYTFGQGTKLEIKRTVAAPSVFIFPPSDEQLKSGTASVVCLLNNFYPREAKVQWKVDNALQSGNSQESVTEQDSKDSTYSLSSTLTLSKADYEKHKVYACEVTHQGLSSPVTKSFNRGEC
notes: as for B1
B2 yielded a Kd of 87.6 nM.

B3: TR01H101-E22Hh/none-Hi-Kn010G3/L0011-k0 (antibody, human IgG1, kappa, L234A L235A, N297A)
heavy: QVQLVESGGGLVQPGRSLRLSCAASGFTFSNAWMHWVRQAPGKGLEWVAQIKDKSQNYAVYYAESVKGRFTISRDDSKNSLYLQMNSLKTEDTAVYYCRYVHYAAGYGVDAWGQGTTVTVSSASTKGPSVFPLAPSSKSTSGGTAALGCLVKDYFPEPVTVSWNSGALTSGVHTFPAVLQSSGLYSLSSVVTVPSSSLGTQTYICNVNHKPSNTKVDKKVEPKSCDKTHTCPPCPAPEAAGGPSVFLFPPKPKDTLMISRTPEVTCVVVDVSHEDPEVKFNWYVDGVEVHNAKTKPREEQYASTYRVVSVLTVLHQDWLNGKEYKCKVSNKALPAPIEKTISKAKGQPREPQVYTLPPSRCELTKNQVSLSCAVKGFYPSDIAVEWESNGQPENNYKTTPPVLDSDGSFFLVSKLTVDKSRWQQGNVFSCSVMHEALHNHYTQKSLSLSPDYKDDDDK
chain: EPKSSDKTHTCPPCPAPELLGGPSVFLFPPKPKDTLMISRTPEVTCVVVDVSHEDPEVKFNWYVDGVEVHNAKTKPREEQYNSTYRVVSVLTVLHQDWLNGKEYKCKVSNKALPAPIEKTISKAKGQPREPQVCTLPPSRDELTKNQVSLWCLVKGFYPSDIAVEWESNGQPENNYKTTPPVLDSDGSFFLYSKLTVDKSRWQQGNVFSCSVMHEALHNRYTQKSLSLSP
light: DIVMTQSPLSLPVTPGEPASISCRSSQPLVHSNRNTYLHWYQQKPGQAPRLLIYKVSNRFSGVPDRFSGSGSGTDFTLKISRVEAEDVGVYYCGQGTQVPYTFGQGTKLEIKRTVAAPSVFIFPPSDEQLKSGTASVVCLLNNFYPREAKVQWKVDNALQSGNSQESVTEQDSKDSTYSLSSTLTLSKADYEKHKVYACEVTHQGLSSPVTKSFNRGEC
notes: as for B1
As to B3, the equilibrium dissociation constant (Kd) was 78.7 nM.

B4: TR01H098-E22Hh/none-Hi-Kn010G3/L0011-k0 (antibody, human IgG1, kappa, L234A L235A, N297A)
heavy: QVQLVESGGGLVQPGRSLRLSCAASGFTFSNAWMHWVRQAPGKGLEWVAQIKDKSQNYAPYYAESVKGRFTISRDDSKNSLYLQMNSLKTEDTAVYYCRYVHYAAGYGVDAWGQGTTVTVSSASTKGPSVFPLAPSSKSTSGGTAALGCLVKDYFPEPVTVSWNSGALTSGVHTFPAVLQSSGLYSLSSVVTVPSSSLGTQTYICNVNHKPSNTKVDKKVEPKSCDKTHTCPPCPAPEAAGGPSVFLFPPKPKDTLMISRTPEVTCVVVDVSHEDPEVKFNWYVDGVEVHNAKTKPREEQYASTYRVVSVLTVLHQDWLNGKEYKCKVSNKALPAPIEKTISKAKGQPREPQVYTLPPSRCELTKNQVSLSCAVKGFYPSDIAVEWESNGQPENNYKTTPPVLDSDGSFFLVSKLTVDKSRWQQGNVFSCSVMHEALHNHYTQKSLSLSPDYKDDDDK
chain: EPKSSDKTHTCPPCPAPELLGGPSVFLFPPKPKDTLMISRTPEVTCVVVDVSHEDPEVKFNWYVDGVEVHNAKTKPREEQYNSTYRVVSVLTVLHQDWLNGKEYKCKVSNKALPAPIEKTISKAKGQPREPQVCTLPPSRDELTKNQVSLWCLVKGFYPSDIAVEWESNGQPENNYKTTPPVLDSDGSFFLYSKLTVDKSRWQQGNVFSCSVMHEALHNRYTQKSLSLSP
light: DIVMTQSPLSLPVTPGEPASISCRSSQPLVHSNRNTYLHWYQQKPGQAPRLLIYKVSNRFSGVPDRFSGSGSGTDFTLKISRVEAEDVGVYYCGQGTQVPYTFGQGTKLEIKRTVAAPSVFIFPPSDEQLKSGTASVVCLLNNFYPREAKVQWKVDNALQSGNSQESVTEQDSKDSTYSLSSTLTLSKADYEKHKVYACEVTHQGLSSPVTKSFNRGEC
notes: as for B1
On to B4, for which the Kd is 91.4 nM.

B5: TR01H099-E22Hh/none-Hi-Kn010G3/L0011-k0 (antibody, human IgG1, kappa, L234A L235A, N297A)
heavy: QVQLVESGGGLVQPGRSLRLSCAASGFTFSNAWMHWVRQAPGKGLEWVAQIKDKSQNYAQYYAESVKGRFTISRDDSKNSLYLQMNSLKTEDTAVYYCRYVHYAAGYGVDAWGQGTTVTVSSASTKGPSVFPLAPSSKSTSGGTAALGCLVKDYFPEPVTVSWNSGALTSGVHTFPAVLQSSGLYSLSSVVTVPSSSLGTQTYICNVNHKPSNTKVDKKVEPKSCDKTHTCPPCPAPEAAGGPSVFLFPPKPKDTLMISRTPEVTCVVVDVSHEDPEVKFNWYVDGVEVHNAKTKPREEQYASTYRVVSVLTVLHQDWLNGKEYKCKVSNKALPAPIEKTISKAKGQPREPQVYTLPPSRCELTKNQVSLSCAVKGFYPSDIAVEWESNGQPENNYKTTPPVLDSDGSFFLVSKLTVDKSRWQQGNVFSCSVMHEALHNHYTQKSLSLSPDYKDDDDK
chain: EPKSSDKTHTCPPCPAPELLGGPSVFLFPPKPKDTLMISRTPEVTCVVVDVSHEDPEVKFNWYVDGVEVHNAKTKPREEQYNSTYRVVSVLTVLHQDWLNGKEYKCKVSNKALPAPIEKTISKAKGQPREPQVCTLPPSRDELTKNQVSLWCLVKGFYPSDIAVEWESNGQPENNYKTTPPVLDSDGSFFLYSKLTVDKSRWQQGNVFSCSVMHEALHNRYTQKSLSLSP
light: DIVMTQSPLSLPVTPGEPASISCRSSQPLVHSNRNTYLHWYQQKPGQAPRLLIYKVSNRFSGVPDRFSGSGSGTDFTLKISRVEAEDVGVYYCGQGTQVPYTFGQGTKLEIKRTVAAPSVFIFPPSDEQLKSGTASVVCLLNNFYPREAKVQWKVDNALQSGNSQESVTEQDSKDSTYSLSSTLTLSKADYEKHKVYACEVTHQGLSSPVTKSFNRGEC
notes: as for B1
B5 had an equilibrium dissociation constant (Kd) of 77.4 nM.

B6: TR01H102-E22Hh/none-Hi-Kn010G3/L0011-k0 (antibody, human IgG1, kappa, L234A L235A, N297A)
heavy: QVQLVESGGGLVQPGRSLRLSCAASGFTFSNAWMHWVRQAPGKGLEWVAQIKDKSQNYATYFAESVKGRFTISRDDSKNSLYLQMNSLKTEDTAVYYCRYVHYAAGYGVDAWGQGTTVTVSSASTKGPSVFPLAPSSKSTSGGTAALGCLVKDYFPEPVTVSWNSGALTSGVHTFPAVLQSSGLYSLSSVVTVPSSSLGTQTYICNVNHKPSNTKVDKKVEPKSCDKTHTCPPCPAPEAAGGPSVFLFPPKPKDTLMISRTPEVTCVVVDVSHEDPEVKFNWYVDGVEVHNAKTKPREEQYASTYRVVSVLTVLHQDWLNGKEYKCKVSNKALPAPIEKTISKAKGQPREPQVYTLPPSRCELTKNQVSLSCAVKGFYPSDIAVEWESNGQPENNYKTTPPVLDSDGSFFLVSKLTVDKSRWQQGNVFSCSVMHEALHNHYTQKSLSLSPDYKDDDDK
chain: EPKSSDKTHTCPPCPAPELLGGPSVFLFPPKPKDTLMISRTPEVTCVVVDVSHEDPEVKFNWYVDGVEVHNAKTKPREEQYNSTYRVVSVLTVLHQDWLNGKEYKCKVSNKALPAPIEKTISKAKGQPREPQVCTLPPSRDELTKNQVSLWCLVKGFYPSDIAVEWESNGQPENNYKTTPPVLDSDGSFFLYSKLTVDKSRWQQGNVFSCSVMHEALHNRYTQKSLSLSP
light: DIVMTQSPLSLPVTPGEPASISCRSSQPLVHSNRNTYLHWYQQKPGQAPRLLIYKVSNRFSGVPDRFSGSGSGTDFTLKISRVEAEDVGVYYCGQGTQVPYTFGQGTKLEIKRTVAAPSVFIFPPSDEQLKSGTASVVCLLNNFYPREAKVQWKVDNALQSGNSQESVTEQDSKDSTYSLSSTLTLSKADYEKHKVYACEVTHQGLSSPVTKSFNRGEC
notes: as for B1
Molecule B6 came in with a Kd of 85.4 nM.
